Assay results: patent US20030134799A1
Like-named read-outs stand apart in the source and are kept apart here.

Key:
[1] = target: NMDA receptor of well-washed rat forebrain membranes (rat) (UniProt Q9R1M7)
[2] = target: NMDA receptor of primary cultures of rat cerebellar granule cells (rat); assay: cell-based or functional assay
[3] = target: NMDA receptor of well-washed rat forebrain membranes (rat) (UniProt Q9R1M7); assay: cell-based or functional assay
[4] = target: NMDA receptor of well-washed rat forebrain membranes (rat) (UniProt Q9R1M7); assay: displacement of [3H]ifenprodil, polyamine-sensitive site

NMDA receptor of well-washed rat forebrain membranes (rat), sequence (Q9R1M7 24-1135): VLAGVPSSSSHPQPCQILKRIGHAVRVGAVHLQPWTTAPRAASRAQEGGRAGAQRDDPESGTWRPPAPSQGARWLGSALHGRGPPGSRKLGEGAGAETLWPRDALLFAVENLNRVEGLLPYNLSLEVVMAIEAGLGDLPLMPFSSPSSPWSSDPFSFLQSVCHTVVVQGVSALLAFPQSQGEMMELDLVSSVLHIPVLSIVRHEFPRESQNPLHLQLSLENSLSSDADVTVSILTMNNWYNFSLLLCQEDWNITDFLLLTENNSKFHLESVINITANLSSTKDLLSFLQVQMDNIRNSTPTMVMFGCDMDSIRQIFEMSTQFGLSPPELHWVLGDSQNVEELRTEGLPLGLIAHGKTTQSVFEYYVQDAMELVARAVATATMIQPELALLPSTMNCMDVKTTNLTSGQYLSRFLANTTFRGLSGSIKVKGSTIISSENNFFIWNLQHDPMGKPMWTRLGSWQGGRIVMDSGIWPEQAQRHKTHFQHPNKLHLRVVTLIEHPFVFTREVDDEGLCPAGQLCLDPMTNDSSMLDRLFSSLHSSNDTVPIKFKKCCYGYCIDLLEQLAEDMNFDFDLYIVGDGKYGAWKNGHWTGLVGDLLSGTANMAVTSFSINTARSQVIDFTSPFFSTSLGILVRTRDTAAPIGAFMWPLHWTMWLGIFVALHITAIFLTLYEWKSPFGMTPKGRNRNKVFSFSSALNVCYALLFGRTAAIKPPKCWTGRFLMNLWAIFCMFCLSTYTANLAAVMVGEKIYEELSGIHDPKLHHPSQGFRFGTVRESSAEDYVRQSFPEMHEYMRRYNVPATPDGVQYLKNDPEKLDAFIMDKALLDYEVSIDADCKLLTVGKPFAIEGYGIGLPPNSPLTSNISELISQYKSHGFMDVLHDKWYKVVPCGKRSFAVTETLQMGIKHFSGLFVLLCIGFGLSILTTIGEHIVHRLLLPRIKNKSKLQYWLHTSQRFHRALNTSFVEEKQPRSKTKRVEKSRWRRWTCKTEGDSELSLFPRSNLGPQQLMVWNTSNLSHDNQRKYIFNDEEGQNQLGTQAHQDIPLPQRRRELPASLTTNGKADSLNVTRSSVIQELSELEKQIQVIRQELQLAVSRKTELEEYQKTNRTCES

With Conantokin-G (peptide) the IC50 [1] was greater than 5000 nM, the IC50, inhibition of NMDA-stimulated increases in cyclic GMP formation [2] was 300 nM and the % Inh, spermine-enhanced [3H]MK-801 binding [3] was 100%. It also gave a % Sti, [3H]MK-801 binding without spermine [3] of 0%, an IC50, antagonism of Gly-stimulated [3H]MK-801 binding, representative experiment [3] of 835 nM and an IC50, inhibition of spermine-enhanced [3H]MK-801 binding, typical experiment [3] of 275 nM. The IC (µM), inhibition of spermine-enhanced [3H]MK-801 binding [3] was 0.16 µM and the IC50 [4] was greater than 5000 nM.
